Data set [1] addresses human norovirus GII.4 Saga P-domain (native, Asn373) (human norovirus GII.4 Saga). The data set is described as follows: native MS.
Data set [2] addresses human norovirus GII.4 Saga P-domain, fully deamidated at position 373 (iso-aspartate) (human norovirus GII.4 Saga).
The target of data set [3] is murine norovirus (MNV) CR10 P-domain (murine norovirus, strain CR10) (UniProt Q80J94). The data set is described as follows: native MS.
Data set [4] concerns Q80J94. The data set is described as follows: SEC.
Data set [5] has as its target murine norovirus (MNV) CW1 P-domain (murine norovirus, strain CW1) (UniProt Q80J94). The data set is described as follows: SEC.
For data set [6] the target is unchanged. The data set is described as follows: SEC. The source holds these as a separate data set.
Data set [7] shares this target. The data set is described as follows: NMR titration.
The target is the same in data set [8]. The data set is described as follows: NMR titration. The source holds these as a separate data set.

Experimental findings from paper doi:10.1101/2021.02.27.433148 are described below.

Read-outs that look alike come from different tables or passages of the source.

Substance “human norovirus GII.4 Saga P-domain (native, Asn373) (domain or fragment)” came in with a stoichiometry N in data set [1] of 2.
On to “human norovirus GII.4 Saga P-domain point mutant N373Q (domain or fragment)”, for which the off-rate constant (koff) in data set [2] is 1.5e-06 s⁻¹.
With “murine norovirus (MNV) CR10 P-domain (from UniProt Q80J94 229-531) (domain or fragment)”, in data set [3], the Kd came to 32 µM and the stoichiometry N amounted to 2.
Regarding murine norovirus (MNV) CW1 P-domain, in data set [4], the “kex (printed as dissociation rate constant kex, from SEC peak tailing)” value was 0.03 s⁻¹.
In data set [5], “murine norovirus (MNV) CW1 P-domain (from UniProt Q80J94 225-541) (domain or fragment)” returned a Kd of 40 µM and a stoichiometry N of 2. The same substance gave a stoichiometry N in data set [6] of 2. In data set [7], this substance gave a Kd of 12.5 µM, a koff of 0.035 s⁻¹ and an association rate constant (kon) of 2800 M⁻¹ s⁻¹. Further, in data set [8], the Kd was determined as 31 µM and the dimer half-life t1/2 is 17 s.
